# Measurements taken from patent publication US20260242419A1, “A CYCLIC PEPTIDE FOR TRAPPING INTERLEUKIN-1 BETA” (Merck Sharp & Dohme LLC, priority 2023, published 2026).
# Starred links: 1 amine or outer side, 2 acyl side, 3 side chain; linkers in the order of their positions; H or OH if unused. Non-standard residues stand in square brackets, D forms with d. No end group written: not given here. Phe(4-(5-CO2H-2-pyrimidyl)) = N[C@@H](Cc1ccc(-c2ncc(C(=O)O)cn2)cc1)C(=O)O; Phe(4-(4-Ac-piperazinyl)) = CC(=O)N1CCN(c2ccc(C[C@H](N)C(=O)O)cc2)CC1; dPro(4R-(4-pyridylmethyl)) = O=C(O)[C@H]1C[C@@H](Cc2ccncc2)CN1; Ala(piperidin-4-yl) = O=C([C@H](CC1CCN([*:3])CC1)N[*:1])[*:2]; Trp(βS-Me,4-F) = C[C@@H](c1c[nH]c2cccc(F)c12)[C@H](N)C(=O)O; Bip(4'-COOH) = N[C@@H](Cc1ccc(-c2ccc(C(=O)O)cc2)cc1)C(=O)O; Ala(1-bicyclo(1.1.1)pentyl) = N[C@@H](CC12CC(C1)C2)C(=O)O; dPro(4R-Bzl(4-F)) = O=C(O)[C@H]1C[C@@H](Cc2ccc(F)cc2)CN1; Ala(morpholin-4-yl) = N[C@@H](CN1CCOCC1)C(=O)O; Ala(pyrimidin-5-yl) = N[C@@H](Cc1cncnc1)C(=O)O; Phe(4-COOH) = N[C@@H](Cc1ccc(C(=O)O)cc1)C(=O)O; Pro(cis-4-F) = O=C(O)[C@@H]1C[C@H](F)CN1; Ala(4-THP) = N[C@@H](CC1CCOCC1)C(=O)O; cisHyp = O=C(O)[C@@H]1C[C@H](O)CN1; d(αMeD) = C[C@@](N)(CC(=O)O)C(=O)O; 4Pal = N[C@@H](Cc1ccncc1)C(=O)O; aThr = C[C@H](O)[C@H](N)C(=O)O; αMeD = C[C@](N)(CC(=O)O)C(=O)O; d(αMeS) = C[C@@](N)(CO)C(=O)O; Dab = NCC[C@H](N)C(=O)O; Aib = CC(C)(N)C(=O)O
# Target: Recombinant human IL-1β (BioLegend 579404) (human, UniProt P01584 117-269)
# Experiment: cell-based or functional assay
row,MRC5 IC50 [nM],Binder
1,0.031,"cyclo([Bip(4'-COOH)][Ala(1-bicyclo(1.1.1)pentyl)][Phe(4-COOH)]G[Pro(cis-4-F)][Trp(βS-Me,4-F)][Aib]EW[d(αMeS)][Ala(morpholin-4-yl)]QSG[dPro(4R-(4-pyridylmethyl))]) (ring closure inferred; not fully specified (bridges); printed as Bip4CO2H-AlaPent-Phe4COOH-G-Proc4F-SbMeW4F-Aib-E-W-daMeS-AlaMph-Q-S-G-dProc4CH24Pal, cyclic (macrolactam)) [SEQ ID NO: 177]"
2,0.041,"cyclo([Bip(4'-COOH)][Ala(1-bicyclo(1.1.1)pentyl)][Phe(4-COOH)]G[Pro(cis-4-F)][Trp(βS-Me,4-F)][Aib]EW[d(αMeS)][Ala(piperidin-4-yl)]QSG[dPro(4R-(4-pyridylmethyl))]) (ring closure inferred; not fully specified (bridges); printed as Bip4CO2H-AlaPent-Phe4COOH-G-Proc4F-SbMeW4F-Aib-E-W-daMeS-AlaPip4-Q-S-G-dProc4CH24Pal, cyclic (macrolactam)) [SEQ ID NO: 178]"
3,0.029,"[Bip(4'-COOH)][Ala(1-bicyclo(1.1.1)pentyl)][Phe(4-COOH)]G[Pro(cis-4-F)][Trp(βS-Me,4-F)][Aib]SW[Aib][Ala(morpholin-4-yl)]QSG[dPro(4R-(4-pyridylmethyl))] (lactam (positions not given here); also: macrolactam ring, closure sites not given here) [SEQ ID NO: 179]"
4,0.027,"[Bip(4'-COOH)][Ala(1-bicyclo(1.1.1)pentyl)][Phe(4-COOH)]G[Pro(cis-4-F)][Trp(βS-Me,4-F)][Aib]SW[Aib][Ala(piperidin-4-yl)]QSG[dPro(4R-(4-pyridylmethyl))] (lactam (positions not given here); also: macrolactam ring, closure sites not given here) [SEQ ID NO: 180]"
5,0.021,"[Bip(4'-COOH)][Ala(1-bicyclo(1.1.1)pentyl)][Phe(4-COOH)]G[Pro(cis-4-F)][Trp(βS-Me,4-F)][Aib]SW[d(αMeS)][Ala(piperidin-4-yl)]QSG[dPro(4R-(4-pyridylmethyl))] (lactam (positions not given here); also: macrolactam ring, closure sites not given here) [SEQ ID NO: 181]"
6,0.049,"[Bip(4'-COOH)][Ala(1-bicyclo(1.1.1)pentyl)][Phe(4-COOH)]G[cisHyp][Trp(βS-Me,4-F)][Aib][aThr]W[d(αMeD)][Ala(pyrimidin-5-yl)]Q[Dab]G[dPro(4R-(4-pyridylmethyl))] (lactam (positions not given here); also: macrolactam ring, closure sites not given here) [SEQ ID NO: 182]"
7,0.025,"[Phe(4-(4-Ac-piperazinyl))][4Pal][Phe(4-COOH)]G[Pro(cis-4-F)][Trp(βS-Me,4-F)][Aib]SW[Aib][Ala(pyrimidin-5-yl)]Q[Dab]G[dPro(4R-Bzl(4-F))] (lactam (positions not given here); also: macrolactam ring, closure sites not given here) [SEQ ID NO: 183]"
8,0.014,"[Phe(4-(4-Ac-piperazinyl))][4Pal][Phe(4-COOH)]G[Pro(cis-4-F)][Trp(βS-Me,4-F)][Aib]SW[αMeD][Ala(pyrimidin-5-yl)]Q[Dab]G[dPro(4R-Bzl(4-F))] (lactam (positions not given here); also: macrolactam ring, closure sites not given here) [SEQ ID NO: 184]"
9,0.043,"[Phe(4-(5-CO2H-2-pyrimidyl))][Ala(1-bicyclo(1.1.1)pentyl)][Phe(4-COOH)]G[cisHyp][Trp(βS-Me,4-F)][Aib]SW[Aib][Ala(pyrimidin-5-yl)]Q[Dab]G[dPro(4R-(4-pyridylmethyl))] (lactam (positions not given here); also: macrolactam ring, closure sites not given here) [SEQ ID NO: 185]"
10,0.015,"[Phe(4-(5-CO2H-2-pyrimidyl))][4Pal][Phe(4-COOH)]G[Pro(cis-4-F)][Trp(βS-Me,4-F)][Aib]SW[Aib][Ala(pyrimidin-5-yl)]Q[Dab]G[dPro(4R-(4-pyridylmethyl))] (lactam (positions not given here); also: macrolactam ring, closure sites not given here) [SEQ ID NO: 186]"
11,0.015,"[Phe(4-(5-CO2H-2-pyrimidyl))][4Pal][Phe(4-COOH)]G[Pro(cis-4-F)][Trp(βS-Me,4-F)][Aib]SW[αMeD][Ala(pyrimidin-5-yl)]Q[Dab]G[dPro(4R-(4-pyridylmethyl))] (lactam (positions not given here); also: macrolactam ring, closure sites not given here) [SEQ ID NO: 187]"
12,0.02,"[Phe(4-(5-CO2H-2-pyrimidyl))][Ala(1-bicyclo(1.1.1)pentyl)][Phe(4-COOH)]G[Pro(cis-4-F)][Trp(βS-Me,4-F)][Aib]SW[αMeD][Ala(pyrimidin-5-yl)]Q[Dab]G[dPro(4R-(4-pyridylmethyl))] (lactam (positions not given here); also: macrolactam ring, closure sites not given here) [SEQ ID NO: 188]"
13,0.016,"[Bip(4'-COOH)][4Pal][Phe(4-COOH)]G[Pro(cis-4-F)][Trp(βS-Me,4-F)][Aib]SW[αMeD][Ala(4-THP)]QSG[dPro(4R-(4-pyridylmethyl))] (lactam (positions not given here); also: macrolactam ring, closure sites not given here) [SEQ ID NO: 189]"
14,0.019,"[Bip(4'-COOH)][Ala(1-bicyclo(1.1.1)pentyl)][Phe(4-COOH)]G[cisHyp][Trp(βS-Me,4-F)][Aib]SW[d(αMeS)][Ala(pyrimidin-5-yl)]Q[Dab]G[dPro(4R-(4-pyridylmethyl))] (lactam (positions not given here); also: macrolactam ring, closure sites not given here) [SEQ ID NO: 190]"
15,0.021,"[Bip(4'-COOH)][Ala(1-bicyclo(1.1.1)pentyl)][Phe(4-COOH)]G[cisHyp][Trp(βS-Me,4-F)][Aib]SW[αMeD][Ala(4-THP)]Q[Dab]G[dPro(4R-(4-pyridylmethyl))] (lactam (positions not given here); also: macrolactam ring, closure sites not given here) [SEQ ID NO: 191]"
16,0.021,"[Bip(4'-COOH)][Ala(1-bicyclo(1.1.1)pentyl)][Phe(4-COOH)]G[cisHyp][Trp(βS-Me,4-F)][Aib]SW[d(αMeS)][Ala(4-THP)]Q[Dab]G[dPro(4R-(4-pyridylmethyl))] (lactam (positions not given here); also: macrolactam ring, closure sites not given here) [SEQ ID NO: 192]"
17,0.011,"[Bip(4'-COOH)][Ala(1-bicyclo(1.1.1)pentyl)][Phe(4-COOH)]G[Pro(cis-4-F)][Trp(βS-Me,4-F)][Aib]SW[αMeD][Ala(4-THP)]Q[Dab]G[dPro(4R-(4-pyridylmethyl))] (lactam (positions not given here); also: macrolactam ring, closure sites not given here) [SEQ ID NO: 193]"
18,0.014,"[Bip(4'-COOH)][4Pal][Phe(4-COOH)]G[cisHyp][Trp(βS-Me,4-F)][Aib]SW[Aib][Ala(pyrimidin-5-yl)]Q[Dab]G[dPro(4R-(4-pyridylmethyl))] (lactam (positions not given here); also: macrolactam ring, closure sites not given here) [SEQ ID NO: 194]"
19,0.013,"[Bip(4'-COOH)][4Pal][Phe(4-COOH)]G[cisHyp][Trp(βS-Me,4-F)][Aib]SW[d(αMeS)][Ala(pyrimidin-5-yl)]Q[Dab]G[dPro(4R-(4-pyridylmethyl))] (lactam (positions not given here); also: macrolactam ring, closure sites not given here) [SEQ ID NO: 195]"
20,0.038,"[Phe(4-(4-Ac-piperazinyl))][4Pal][Phe(4-COOH)]G[cisHyp][Trp(βS-Me,4-F)][Aib]SW[Aib][Ala(pyrimidin-5-yl)]Q[Dab]G[dPro(4R-Bzl(4-F))] (lactam (positions not given here); also: macrolactam ring, closure sites not given here) [SEQ ID NO: 196]"
21,0.036,"[Phe(4-(5-CO2H-2-pyrimidyl))][4Pal][Phe(4-COOH)]G[cisHyp][Trp(βS-Me,4-F)][Aib]SW[Aib][Ala(pyrimidin-5-yl)]Q[Dab]G[dPro(4R-(4-pyridylmethyl))] (lactam (positions not given here); also: macrolactam ring, closure sites not given here) [SEQ ID NO: 197]"
